Measured values published in IntAct's records for PubMed 33368531.

B1: Centriole and centriolar satellite protein OFD1 (Homo sapiens), O75665 (parent)
chain: MMAQSNMFTVADVLSQDELRKKLYQTFKDRGILDTLKTQLRNQLIHELMHPVLSGELQPRSISVEGSSLLIGASNSLVADHLQRCGYEYSLSVFFPESGLAKEKVFTMQDLLQLIKINPTSSLYKSLVSGSDKENQKGFLMHFLKELAEYHQAKESCNMETQTSSTFNRDSLAEKLQLIDDQFADAYPQRIKFESLEIKLNEYKREIEEQLRAEMCQKLKFFKDTEIAKIKMEAKKKYEKELTMFQNDFEKACQAKSEALVLREKSTLERIHKHQEIETKEIYAQRQLLLKDMDLLRGREAELKQRVEAFELNQKLQEEKHKSITEALRRQEQNIKSFEETYDRKLKNELLKYQLELKDDYIIRTNRLIEDERKNKEKAVHLQEELIAINSKKEELNQSVNRVKELELELESVKAQSLAITKQNHMLNEKVKEMSDYSLLKEEKLELLAQNKLLKQQLEESRNENLRLLNRLAQPAPELAVFQKELRKAEKAIVVEHEEFESCRQALHKQLQDEIEHSAQLKAQILGYKASVKSLTTQVADLKLQLKQTQTALENEVYCNPKQSVIDRSVNGLINGNVVPCNGEISGDFLNNPFKQENVLARMVASRITNYPTAWVEGSSPDSDLEFVANTKARVKELQQEAERLEKAFRSYHRRVIKNSAKSPLAAKSPPSLHLLEAFKNITSSSPERHIFGEDRVVSEQPQVGTLEERNDVVEALTGSAASRLRGGTSSRRLSSTPLPKAKRSLESEMYLEGLGRSHIASPSPCPDRMPLPSPTESRHSLSIPPVSSPPEQKVGLYRRQTELQDKSEFSDVDKLAFKDNEEFESSFESAGNMPRQLEMGGLSPAGDMSHVDAAAAAVPLSYQHPSVDQKQIEEQKEEEKIREQQVKERRQREERRQSNLQEVLERERRELEKLYQERKMIEESLKIKIKKELEMENELEMSNQEIKDKSAHSENPLEKYMKIIQQEQDQESADKSSKKMVQEGSLVDTLQSSDKVESLTGFSHEELDDSW

Variants of: B1
Settings: with gbrap_human GABARAP

effect of a mutation on the interaction	Variant
disrupting interaction	Y961A;I964A

Variants of: B1
Settings: with mlp3b_human MAP1LC3B

effect of a mutation on the interaction	Variant
disrupting interaction	Y961A;I964A

Variants of: B1
Settings: with gbrap_human GABARAP
Remark: another data set of the same source

effect of a mutation on the interaction	Variant
disrupting interaction	Y961A;I964A
